Experimental data reported in the DeepSol protein solubility set.

Assay: soluble on expression in E. coli; label from the status in PepcDB or PDB records

Sequence	soluble on expression in E. coli
MVTLSLPNMEGRREQLIAQVESILASAADGRVQKTKETQSVDFKEEAGRRNGPQIEPGKPENPEAADKLADEVACMANTPGGGALIVGIEDKTGRIIGTELDIDWLRQGIFTRIDVAPDVVAKRVLGQRVLAIYVAAAAEPIEDTSDRLRWRVGDSCRPVDRAEWWEYQRAQSGFDPMAQVTTATLGDARPAALALARKWDPAFAELTDEELLRGIGALDAEGFLSQAGKLLFTSLDRTAIELSIFDVHGGQVLNRVVPEPEKSCLEQLDYLEQALNVVNKNNTVVEGFVHKPVPEIPRLAVREAMLNAMIHRDWNRSEPIDVRWIELDSTLIVRSPGGFPAAITSENVLSNRAARYPALADLYRALGLVDKQGVGVDRMYQAMIALGHRPPTIEEIAGPFVETTLVGGRPVLPVLELVSSIVPEARQDDYRIAIVLYLLFQRPFITIDVVARGLQSGKEAARNALEAARQTTVAGAPLIIAHDGVWLLGNACREILRKVEPSPFSPVRYLSTDQAELTNAAMLWLSEVGDLATSDLMAMCGVSRGTAKACVDGLVDEERVVAVGGGRSRRYRLVELEHHHHHH	soluble
MVTQILGAMESQVGGGPAGPALPNGPLLGTNGATDDSKTNLIVNYLPQNMTQDEFKSLFGSIGDIESCKLVRDKITGQSLGYGFVNYSDPNDADKAINTLNGLKLQTKTIKVSYARPSSASIRDANLYVSGLPKTMSQKEMEQLFSQYGRIITSRILVDQVTGVSRGVGFIRFDKRIEAEEAIKGLNGQKPLGAAEPITVKFANNPSQKTGQALLTHLYQSSARRYAGPLHHQTQRFRLDNLLNMAYGVKSPLSLIARFSPIAIDGMSGLAGVGLSGGAAGAGWCIFVYNLSPEADESVLWQLFGPFGAVTNVKVIRDFTTNKCKGFGFVTMTNYDEAAMAIASLNGYRLGERVLQVSFKTSKQHKA	soluble
MVTVRYYATLRPITKKKEETFNGISKISELLERLKVEYGSEFTKQMYDGNNLFKNVIILVNGNNITSMKGLDTEIKDDDKIDLFPPVAGG	soluble
MVVEVDSMPAASSVKKPFGLRSKMGKWCCRCFPCYRESGKSNVGTSGDHDDSAMKTLRSKMGKWCHHCFPCCRGSGKSNVGASGDHDDSAMKTLRNKMGKWCCHCFPCCRGSGKSKVGAWGDYDDSAFMEPRYHVRGEDLDKLHRAAWWGKVPRKDLIVMLRDTDVNKKDKQKRTALHLASANGNSEVVKLLLDRRCQLNVLDNKKRTALIKVCSSQLYQHEAVQCQEDECALMLLEHGTDPNIPDEYGNTTLHYAIYNEDKLMAKALLLYGADIESKNKHGLTPLLLGVHEQKQQVVKFLIKKKANLNALDRYGRTALILAVCCGSASIVSLLLEQNIDVSSQDLSGQTAREYAVSSHHHVICQLLSDYKEKQMLKISSENSNPENVSRTRNK	not soluble
MVVGWHRPTRLHIDTQAITENVQKECQRLPEGTALFAVVKANGYGHGAVESAKAAKKGGATGFCVALLDEAIELREAGVQDPILILSVVDLAYVPLLIQYDLSVTVATQEWLEAALQQLTPESNTPLRVHLKVDTGMGRIGFLTPEETKQAVRFVQSHKEFLWEGIFTHFSTADEIDTSYFEKQAGRFKAVLAVLEELPRYVHVSNSATALWHPDVPGNMIRYGVAMYGLNPSGNKLAPSYALKPALRLTSELIHVKRLAAGEGIGYGETYVTEAEEWIGTVPIGYADGWLRHLQGFTVLVNGKRCEIVGRVCMDQCMIRLAEEVPVGPVVTLVGKDGNEENTLQMVAEKLETIHYEVACTFSQRIPREYN	soluble
MVVLYNECLKNHAVSLGGHALDGCGEFTPKSTTILTDPPSLRCDACGCHRNFHRRSPSDGFSQHRSPPSPLQLQPLAPVPNLLLSLSSGFFGPSDQEVKNKFTVERDVRKTAMIKKHKRTKFTAEQKVKMRGFAERAGWKINGWDEKWVREFCSEVGIERKVLKVWIHNNKYFNNGRSRDTTSSMSLNLKL	soluble
MVVQSDGSPEAASYTLIHFWAAYDGESRAGNVRWSRYFAKRPDSRVRYVGVSMDKNLSVFTNTLAFDQIDLSAQRLVENSKRDQMLNIYGLKIRFHSYLVDAHGIIRAVDPNPDQLETIL	not soluble
MVVVMNPEQIYGVSNIKSHIPVMLDIEESNYDAWRELFLTHCLSFDVMGHIDGTLLPTNANDVNWQKRDGIVKLSLYGTLTPKQFQGSFVTSSTSRDIWLRIKNQFRNNKDARALRLDSELRTKDIGDMRVADYYRKMKKLADSLRNVDVPVTDRNLVMYVLNGLNPKFDNIINVIKHRQPFPSFDDAATMLQEEEDRLKRAIKPNPTHVDHSSSSTVLACSEAPPVTNFQRSGGNQMGYRGRGRGNNIFRGRGGRFSYYNMPTFNSWNRPPFYQNSYQMWNHPWGYPPYVNTNGGNGLGLLGPRPAY	soluble
MWGKKDAGTELTNYQTLATNTIGMMKGVDGYAFTSGAKMTDTLIQAGAAKGMTVSGDPASGSATLWNSWGGQIVVAPDTAGGTGFNNGFTITTNKVPQSACVSISTGMSRSGGTSGIKINGNNHTDAKVTAEIASSECTADNGRTGTNTLVFNYNG	soluble
MWPAIIQQLSEQLGKDFHLVEKEKVHGGDINECFMVSDGIDRYFVKTNQREYLTKFTAEVENLRVMRESNTVQVPEYILHGTSKTHAYLVLNYLATKPLDDAERSYEFGVQLANLHRWGEQKEFGFDIDNYIGATVQPNPWHKKWALFFAEQRIGWQLQLMQEKGVNLTNINEFVEMVKTRLANHSPRPSLLHGDLWFGNVANIVNGPLCFDPACYWGDRECDIALAEWFGGFQPEFFQGYESVWPLDWGYEERKDIYNLYHVLNHYNQFGGHYLDEAQKLIEKILSYLEHHHHHH	not soluble
MWRKLTIIVVLLCLAGYAAYEQFGKSDQAAQGEQEKSEAAMKEMIASNGIEIGKSAPDFELTKLDGTNIKLSDLKGKKVILNFWATWCGPCQQEMPDMEAFYKKHKDNVEILAINYTPSEKGGGVEKVSNFAKEKGITFPILLDKNIDVTTAYKVITIPTSYFIDTKGVIQDKFIGPMTQKEMEKRIAKLK	not soluble
MWRLTRKIGTRIHISNQLSPIFNKAIGTVPVFRFYSSSPEQKYRKKLLEEAQKQGFNSIEELKNHLKETIESKKREFNKIDPLKELEDYQQKTQMENNNSKHLMTKSRSPLDPSAPKVPFKTLDSFLDVGKLKDLSKQEVEFLWRARWAQKDNTLCAVIPVSVYDKMMANARNNPIFVLPLPRQVQSEDAKPNEEQGMELHYIQWQFVGPQTTHCMMTSLAEYKLHQEFARPHTTLQFHSDLVKDKGIVFMNGHVEPDTNVNVQDAQLLLLNVQRFYGAMGEETPVAKQRVQLLRDFSKASPGFTVEKLISLSQSMEN	soluble
MWRTRVVHTTGYVYQSPVTASYNEARLTPRSSSRQNLVLNRVETIPATRSYRYIDYWGTAVTAFDLHAPHTELTVTSSSVVETERPEPLAAKATWADLQSTAVIDRFDEVLRPTPHTPASARVDAVGRRIRKCHEPSEAVVAAARWARSELDYIPGTTSVHSSGLDALEQGKGVCQDFVHLSLMVLRSMGIPCRYVSGYLHPKRDAVVGKTVDGRSHAWVQAWTGGWWHYDPTNDNEITEQYISVGVGRDYTDVSPLKGIYSGEGVTDLDVVVEITRLA	soluble
MWSEYSLEVVDAVARNGSFSAAAQELHRVPSAVSYTVRQLEEWLAVPLFERRHRDVELTAAGAWFLKEGRSVVKKMQITRQQCQQIANGWRGQLAIAVDNIVRPERTRQMIVDFYRHFDDVELLVFQEVFNGVWDALSDGRVELAIGATRAIPVGGRYTFRDMGMLSWSCVVASHHPLALMDGPFSDDTLRNWPSLVREDTSRTLPKRITWLLDNQKRLVVPDWESSATCISAGLCIGMVPTHFAKPWLNEGKWVALELENPFPDSACCLTWQQNDMSPALTWLLEYLGDSETLNKEWLREPEETPATGD	not soluble
MWTGKTGNMLGALALTLTDRIRAEVNVSLDAGGETAAALVLLGANPALTVAEIAEALGLTHSGAVRLVDRLCVSGLAERQSGPDARAVHVRLTSAGARQRRRALLRRQAVLDHALQALSPSEEAAFAQMLDKLLRRMLDFPDQGHRFCRLCDEDLCVPHGCPVEERLVELLERQARETGL	not soluble
MYEVTKFGGEGKRLEDYREIIGDEALEAIKAKAENLKDKSFVHVNSTSFGGGVAEILHNLVPLMRDVGIDARWFVIEGTNEFFNVTKSFHNALQGNKELRLTEEMKKLYLEINKKNAEDIDLTQFDYVLIHDPQPAPLIEFYEKRQPWIWRCHIDLSDPNLEFWKFLRQFVEKYDRYIFHMEEYVQEDLNQEKVVIMPPSIDPLSEKNMELEHHHHHH	not soluble
MYFPIVALIGRYQDTGLDAPLTALAQMLTQAGRRVLVEAETARNAGVSGYPVADWDEIGRTATLAVVMGGDGTVLGAARHLAPYGVPLIGINHGRLGFITDIPLQDAHDALGRVLEGNYQAEDRMLLQGGVWRGEQQMYSASAVNDVVLNRAGRGGMIEVRVELDGAFMYTQRADGLIIATPTGSTAYSLSANGPILHPGMNAMVLVPVAPQTLSNRPIVIPDSGVLNMTLTAMGRVEIGASVHFDMQTWSDLQPGDRITVQRAPHTIRFVHPEGYSFFSTLRRKLHWNLMPQATDNLELEHHHHHH	soluble
MYGVLVWPPEDLRRFMEELQAARGVRGFGPPHLNLRQPFDWPYEEEALRIALAGILRGHPPFRVRLGDWRFFPQGVVYLRAYGGGAFRRLYHALEPLAPPLKEIEGPSYIPHLTLALGLSPEEAKALAQSLPPPPRRSFLVREAALVRDEGEGLVEVARFPLGPSPER	soluble
MYHVPLIPRDAGREETIFRINQSLQKLLRVSDEIFDRVEHRITRIHGKAEAIDRRTEVLEKKLESLQESDKVITFTLPRQLPKLPEEPPTSTSLFRINIDTEHFPGSEELPAFRRADDHVLRPCEPIDFTYELNKPDKFFLTSQVLKEYEQKGWERYKKRLLGGLRELSRSPEHIAELFYAGTSIPAFEGVSGDFSKKALDADDDGGTSRSGRTTDELAQLRLHEQLLEDTALSSTLMQEDSLDDNHPLAFRINFNEKKKKTAKMVEMPDSLPNLKGHAHDFTLRDPEIDEDRLLDILPADDQIPEASEPTEAEADAPTTFILPPPPPPMKLDPSPQPAATPVEITEIPPIISPPAPPPPPPPPPPPPPPQTPSASSSVTFSPTKSVDGGRSDLMAAIRAAGGAGNAKLSRIAEKPKRKGKFDGILESSALLGASETPRNSAPAPDGGGGGGDLMSALSKALDARRKAINGKVEAQPPAKVSSTIPAPPNFDDEEWD	not soluble
MYILLCCAAGMSTSMVVRKMQEEAKKQGKDYKIKAVDSELVKLEIKNADVVLIGPQVKYLFPAVQFLAKSYDIPVAIIEQRDYGMCDGLKVLKQAEQLVLA	not soluble
MYKDFANFIRTNKADLLNNWMNEMEKQSDQLINDIAKEAMYEETSKEFVDLIVSNVTENGSKFNEKLDDFAEKVVHLGWPIHFVTTGLRVFGLLVYTAMRDEDLFLKREEKPEDDAYYRFETWLSSMYNKVVTAYADTWEKTVSIQKSALQELSAPLLPIFEKISVMPLIGTIDTERAKLIIENLLIGVVKNRSEVVLIDITGVPVVDTMVAHHIIQASEAVRLVGCQAMLVGIRPEIAQTIVNLGIELDQIITTNTMKKGMERALALTNREIVEKEG	not soluble
MYKIMPLKVAEISVPLGVTIMMGDMRVMATGPVYVWVIDGGDEKIVVDSGVEEAKNGMFHGFPGKGGGEKGLREAMEKVNLKPEDVDKLIITHLHFDHAANAKLFTNARIYVQKREWESALNPPLHYRQTYDSSMLYPLEEMDLCLIDGDVEIAEGVKAVLLPGHTKGLQGVAVETEKGTYLLAADHFYTYFNFFPPKQPIQMTDTAGNTVEIPTSPLPFLPPGLHVDLSEWYESCFKALSVAKKANILPGHDPSLEGRVFPLEHHHHHH	not soluble
